According to patent US20150017120A1 (MIT, published 2015):
Numbering of substitutions follows the chain as printed. Numbers in names are those of the source.

B1: E76A IL-2 (ligand)
chain: APTSSSTSSSTAEAQQQQQQQQQQQQHLEQLLMDLQELLSRMENYRNLKLPRMLTFKFYLPKQATELKDLQCLEDALGPLRHVLDLTQSKSFQLEDAENFISNIRVTVVKLKGSDNTFECQFDDESATVVDFLRRWIAFCQSIISTSPQ
notes: also called E76 mutants
B2: E76R mouse IL-2 (ligand)
chain: B1 chain with A76R
notes: also called E76 mutants
B3: E76F mouse IL-2 (ligand)
chain: B1 chain with A76F
notes: also called E76 mutants
B4: E76G IL-2 (ligand)
chain: B1 chain with A76G
notes: also called E76 mutants
B5: D265AFc/IL-2 (Fc fusion)
chain 1: EPRVPITQNPCPPLKECPPCAAPDLLGGPSVFIFPPKIKDVLMISLSPMVTCVVVAVSEDDPDVQISWFVNNVEVHTAQTQTHREDYNSTLRVVSALPIQHQDWMSGKEFKCKVNNRALPSPIEKTISKPRGPVRAPQVYVLPPPAEEMTKKEFSLTCMITGFLPAEIAVDWTSNGRTEQNYKNTATVLDSDGSYFMYSKLRVQKSTWERGSLFACSVVHEGLHNHLTTKTISRSLGKGGGSAPTSSSTSSSTAEAQQQQQQQQQQQQHLEQLLMDLQELLSRMENYRNLKLPRMLTFKFYLPKQATELKDLQCLEDELGPLRHVLDLTQSKSFQLEDAENFISNIRVTVVKLKGSDNTFECQFDDESATVVDFLRRWIAFCQSIISTSPQHHHHHH
chain 2: EPRVPITQNPCPPLKECPPCAAPDLLGGPSVFIFPPKIKDVLMISLSPMVTCVVVAVSEDDPDVQISWFVNNVEVHTAQTQTHREDYNSTLRVVSALPIQHQDWMSGKEFKCKVNNRALPSPIEKTISKPRGPVRAPQVYVLPPPAEEMTKKEFSLTCMITGFLPAEIAVDWTSNGRTEQNYKNTATVLDSDGSYFMYSKLRVQKSTWERGSLFACSVVHEGLHNHLTTKTISRSLGKGGGSDYKDDDDK
notes: also called D265A Fc/wt mIL-2
B6: mIL-2 QQ 6.2-8 (ligand)
chain: APTSSSTSSSTAEAQQQQQQQQHLEQLLMDLQELLSRMEDHRNLRLPRMLTFKFYLPKQATELEDLQCLEDELEPLRQVLDLTQSKSFQLEDAENFISNIRVTVVKLKGSDNTFECQFDDEPATVVDFLRRWIAFCQSIISTSPR
notes: Reversion mutant
B7: mIL-2 QQ 6.2-11 (ligand)
chain: APTSSSTSSSTAEAQQQQQQQQQHLEQLLMDLQELLSRMEDSRNLRLPRMLTFKFYLPEQATELKDLQCLEDELEPLRQVLDLTQSKSFQLEDAENFISNIRVTVVKLKGSDNTFECQFDDEPATVVDFLRRWIAFCQSIISTSPQ
notes: Reversion mutant
B8: mIL-2 QQ 6.2-10 (ligand)
chain: B1 chain with N44D, Y45H, K49R, K62E, K68E, A76E, G78E, H82Q, S126P
notes: Reversion mutant
B9: mIL-2 QQ 6.2-4 (ligand)
chain: B1 chain with N44D, Y45S, K49R, K68E, A76E, G78E, H82Q, S126P, D131G
B10: mIL-2 QQ 6.2-13 (ligand)
chain: B1 chain with N44D, Y45H, K49R, K62E, A76E, G78E, H82Q, S126P
notes: Reversion mutant

The binders below were run against T1, soluble murine CD25 (murine, UniProt P01590 22-236, limits assumed) (assay: yeast surface display, labeling with soluble CD25, flow cytometry).
T1 construct: also called soluble CD25; mouse CD25
T1 sequence (looked up): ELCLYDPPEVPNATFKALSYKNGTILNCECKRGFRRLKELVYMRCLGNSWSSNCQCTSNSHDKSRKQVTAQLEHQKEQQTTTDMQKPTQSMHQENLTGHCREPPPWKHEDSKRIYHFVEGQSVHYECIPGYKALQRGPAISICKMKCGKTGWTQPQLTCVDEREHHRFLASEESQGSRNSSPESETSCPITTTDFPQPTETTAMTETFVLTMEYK
Excerpt: While all H82 and Q121 mutants retained CD25 binding, no CD25 binding was detected for E76 mutants (FIG. 4).
B1: no binding (tested: 50 nM soluble CD25).
B2: no binding (tested: 5 or 50 nM soluble CD25).
B3: no binding (tested: 5 or 50 nM soluble CD25).
B4: no binding (tested: 50 nM soluble CD25).

Each binder was assayed against T1, soluble murine CD25 (assay: method not stated (legend of the schematic of Fc/IL-2)).
For B5, the Kd was about 50 nM.

The binders below were run against T1, soluble murine CD25 (assay: yeast surface display, titration with soluble murine CD25).
B6: binds.
B7: binds.
B8: binds.
B9: binds.
B10: binds.
